Patent US20090324700A1, “METHODS AND COMPOSITIONS FOR THE INHIBITION OF CATHEPSINS” (priority 2003, published 2009)

Columns and labels:
[1] = system: RelA^−/− MEFs; experiment: Lysosome internal pH (acridine orange, flow cytometry), RelA^−/− MEFs; assay type: cell-based, mouse; settings: TNF-α 0.2 ng/ml, CHX 0.1 μg/ml; FIG. 8
Experimental: FIG. 8. Spi2A offers partial protection of lysosomal de-acidification in […]. RelA^−/− MEFs were transduced by retrovirus encoding GFP alone or Spi2A as indicated by the percentage AO-low cells after treatment with TNF-α (0.2 ng/ml) and CHX (0.1 μg/ml). The percentage of intact lysosomes was determined by staining with AO as has been described previously (Zhao et al., 2000). Briefly, cells were incubated with AO (5 μg/ml), washed and collected for flow cytometric assessment of uptake into intact lysosomes as indicated by red fluorescence (FL3 channel).
The inhibitory reaction was too fast to be measured using our conventional spectrophotometer. […] Lysosome internal pH was measured by staining with the weak basic, lysosomotropic dye—acridine orange (AO)— and flow cytometry (Zhao et al., 2000). Increase in lysosomal pH results a corresponding decrease in AO red fluorescence and the appearance of AO-low cells. It was shown that TNF-R1 cross-linking results in the appearance of AO-low cells in Rel A^−/− MEFs transduced with control retrovirus (GFP) (Supplementary FIG. 4). […] The appearance of AO-low cells can be interpreted as lysosomal rupture, and so it is possible that Spi2A in some way protects lysosomes from damage induced by TNF-α.

[2] = biological target: T1, caspase 3 (Homo sapiens, UniProt P42574); experiment: Protease specificity of Spi2A: caspase 3; assay type: biochemical; settings: FIG. 6B
T1 construct: purchased Calbiochem or Athens Research and Technology
T1 sequence (P42574 29-175 limits assumed): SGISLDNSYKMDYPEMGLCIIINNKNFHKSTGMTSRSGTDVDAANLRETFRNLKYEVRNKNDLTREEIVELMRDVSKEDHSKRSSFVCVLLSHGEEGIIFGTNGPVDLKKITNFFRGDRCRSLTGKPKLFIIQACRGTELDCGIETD
T1 sequence (P42574 176-277 limits assumed): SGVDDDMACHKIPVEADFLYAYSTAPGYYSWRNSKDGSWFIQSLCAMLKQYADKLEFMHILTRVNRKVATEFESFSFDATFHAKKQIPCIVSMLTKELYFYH
Experimental: (§1) Protease specificity of Spi2A. RelA^−/− MEFs were transduced with retrovirus encoding Spi2A with a C-terminal 3×FLAG epitope tag and Spi2A-3×FLAG purified using a method described previously (Cooley et al., 1998). Briefly, cells (3×10^9) were lysed and Spi2A-3×FLAG (75 μg) purified by batch Q-Fast Flow ion-exchange chromatography (Pharmacia Biotech) after elution at 160-220 mM NaCl followed by anti-FLAG antibody columns, performed according to manufacturer's instructions (Sigma-Aldrich). Spi2A-3×FLAG was dialysed into PBS and stored as aliquots at −80° C. until needed.
(§2) Proteases were purchases from the manufacturers (Calbiochem or Athens Research and Technology) except granzymes A and B which were purified as described (Hanna et al., 1993) and cathespin V and K, which were purified as described (Bromme et al., 1999; Linnevers et al., 1997). Proteases (20 nM) were incubated in the appropriate assay buffer with Spi2A at 200 nM (at least 10-fold excess of inhibitor to maintain pseudo-first order conditions) for 1 h at 37° C. Control samples included only the enzyme, without the inhibitor. At the end of 1 h protease activity was assayed. […] Substrate hydrolysis was measured in a fluorescence microtiter plate reader (Spectramax Gemini XS, Molecular Devices). Percentage inhibition was calculated from the residual enzyme activity compared to no Spi2A controls. […]

[3] = system: Spi2A mRNA; settings: mouse, in vivo
[4] = biological target: T2, human cathepsin V (Homo sapiens, UniProt O60911); experiment: Protease specificity of Spi2A: cathepsin V; assay type: biochemical; settings: protease 20 nM, Spi2A 200 nM, 1 h at 37° C; FIG. 6B
T2 construct: made in house
T2 sequence (O60911 114-334): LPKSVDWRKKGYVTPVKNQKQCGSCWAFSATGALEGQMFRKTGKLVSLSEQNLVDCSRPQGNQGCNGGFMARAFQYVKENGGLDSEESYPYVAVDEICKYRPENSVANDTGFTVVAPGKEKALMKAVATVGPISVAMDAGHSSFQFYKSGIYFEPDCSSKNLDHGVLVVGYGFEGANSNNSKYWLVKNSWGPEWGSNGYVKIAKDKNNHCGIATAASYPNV
Experimental: as §1, §2

[5] = system: CD8 cells and B lymphocytes in PBLs; experiment: Generation of bone marrow chimeras transduced with retrovirus: engraftment of CD8 cells and B lymphocytes in PBLs; assay type: in vivo, mouse; settings: 8 weeks after bone-marrow transfer, before infection; vs GFP mice
[6] = system: NF-κB; experiment: NF-κB activation, EMSA, RelA^−/− MEFs; assay type: cell-based, mouse; settings: TNF-α stimulation
Experimental: The possibility that Spi2A protects from TNF-α-induced apoptosis by directly activating NF-κB was examined. Therefore, using electrophoretic mobility shift assays (EMSAs), studies were conducted to determine whether Spi2A itself promotes NF-κB activation in nuclei from Rel A^−/− MEFs transduced with Spi2A or whether the abrogation of Spi2A mRNA up-regulation by Spi2A antisense message inhibits NF-κB activation in Rel A^+/+ MEFs. […] In Rel A^+/+ MEFs, super-shift analysis confirmed the induction of p50/Rel A by TNF-α. […] Thus, the anti-apoptotic activity of Spi2A is unlikely to be mediated through the modulation of NF-κB activation.

[7] = biological target: T3, cathepsin B (Homo sapiens, UniProt P07858); experiment: Kinetics of cathepsin B inhibition by Spi2A; assay type: biochemical
T3 construct: purchased Calbiochem or Athens Research and Technology

[8] = system: LCMV-specific CD8 cells; settings: mouse, in vivo
[9] = biological target: T4, human cathepsin L (Homo sapiens, UniProt P07711); experiment: Protease specificity of Spi2A: cathepsin L; assay type: biochemical; settings: protease 20 nM, Spi2A 200 nM, 1 h at 37° C; FIG. 6B
T4 construct: purchased Calbiochem or Athens Research and Technology
T4 sequence (P07711 114-333): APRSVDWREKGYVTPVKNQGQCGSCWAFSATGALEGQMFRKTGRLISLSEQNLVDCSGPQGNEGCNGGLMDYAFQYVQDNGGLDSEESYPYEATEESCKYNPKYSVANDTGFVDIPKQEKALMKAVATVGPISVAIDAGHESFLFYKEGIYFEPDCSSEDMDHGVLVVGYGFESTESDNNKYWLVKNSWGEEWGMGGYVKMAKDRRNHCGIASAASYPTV
Experimental: as §1, §2

B1: Spi2A: murine Spi2A polypeptide, SEQ ID NO:2; purified as C-terminal 3×FLAG protein or expressed from MIGR1 retrovirus in cells and bone-marrow chimeras (protein, listed as Mus musculus)
chain: MAGVSPAVFGCPDVTLGRNTAVREVQENVTSVDSLTLVSSNTDFAFSLYRKLVLKNPDENVVFSPFSICTALALLSLGAKSNTLKEILEGLKFNLTETPEPDIHQGFRYLLDLLSQPGNQVQISTGSALFIEKHLQILAEFKEKARALYQAEAFTADFQQPLKATKLINDYVSNHTQGKIKELISGLKESTLMVLVNYIYFKGKWKNPFDPNDTFKSEFYLDEKRSVIVSMMKTGYLTTPYFRDEELSCTVVELKYTGNASAMFILPDQGRMQQVEASLQPETLRKWKNSLKPRMIHELRLPKFSISTDYSLEHILPELGIREVFSTHADLSAITGTKDLRVSQVVHKAVLDVAEKGTEAAAATGMAGVGCCAVFDFLEIFFNRPFLMIISDTKAHIALFMAKVTNPERSTNFPNGEGASSQRLESKRLCFGDPLCLIGQ
modifications: C-terminal 3xFLAG tag
notes: purified as C-terminal 3×FLAG protein or expressed from MIGR1 retrovirus in cells and bone-marrow chimeras
[1]
  Appearance of AO-low cells (lysosomal de-acidification): less AO-low cells
[2]
  Inhibition of protease by Spi2A (percentage inhibition): did not extend to any of the caspases tested
[3]
  Spi2A mRNA in GFP^+ CD8^+ spleen cells: significant increase
[4]
  Inhibition of protease by Spi2A (percentage inhibition): extended to all of the lysosomal, papain-like proteases that were examined
[5]
  Percentage of CD8 cells in transduced (GFP-positive) PBLs: no difference
[6]
  Expression of NF-κB complexes (p50/p50, p50/Rel) in nuclei: did not affect
[7]; 20 nM cathepsin B, 5 μM (Z-FR)2-R110, 200 or 400 nM Spi2A, pseudo-first order conditions
  second-order association rate constant for the inhibition of cathepsin B: > 10^6 M^−1 s^−1
[7]; dead time ˜30 s, 200 or 400 nM Spi2A
  Inhibition of cathepsin B within the dead time of the measurement: completely inhibited
[8]
  Anti-LCMV CD8 cells as a percentage of the total GFP^+ CD8^+ cell population in PBLs: significantly elevated
  Level of anti-LCMV CD8 cells during the contraction phase: considerable increase
  Level of anti-LCMV CD8 cells during the initial expansion phase: did not increase
  Level of anti-LCMV CD8 cells during the memory phase: elevated level
  Residual level of anti-LCMV CD8 cells (level 56 days after infection as percentage of the maximum on day 14): significantly (p<0.001) higher
  Residual level of anti-LCMV CD8 cells (level after 98 days as percentage of the maximum after 14 days): significantly higher
  Time for which the elevated memory-phase level was stable: at least 14 weeks
[9]
  Inhibition of protease by Spi2A (percentage inhibition): extended to all of the lysosomal, papain-like proteases that were examined
